The target of experiment [1] is cynomolgus LAG3 expressed on the cell surface (293T or CHO cells) (cynomolgus monkey). The experiment in a line: flow cytometry, 293T cells expressing cyno LAG3.
Experiment [2] concerns the target cynomolgus LAG3-Fc (accession # NC 022282.1) (cynomolgus monkey). Kind of experiment: SPR (Biacore), antibody captured by anti-Flag, cyno LAG3-Fc as analyte, 25 C. A general note: SPR reads the build-up and loss of mass on a sensor chip optically.

As a reminder, the Kd is the equilibrium constant for the complex coming apart. Higher therefore signals lower affinity. The koff is the rate constant with which the complex falls apart. A low value points to a long-lived complex.

cynomolgus LAG3-Fc (accession # NC 022282.1) (cynomolgus monkey), sequence (P18627 other isoform, or with tags, fused parts or gaps limits assumed, form in doubt): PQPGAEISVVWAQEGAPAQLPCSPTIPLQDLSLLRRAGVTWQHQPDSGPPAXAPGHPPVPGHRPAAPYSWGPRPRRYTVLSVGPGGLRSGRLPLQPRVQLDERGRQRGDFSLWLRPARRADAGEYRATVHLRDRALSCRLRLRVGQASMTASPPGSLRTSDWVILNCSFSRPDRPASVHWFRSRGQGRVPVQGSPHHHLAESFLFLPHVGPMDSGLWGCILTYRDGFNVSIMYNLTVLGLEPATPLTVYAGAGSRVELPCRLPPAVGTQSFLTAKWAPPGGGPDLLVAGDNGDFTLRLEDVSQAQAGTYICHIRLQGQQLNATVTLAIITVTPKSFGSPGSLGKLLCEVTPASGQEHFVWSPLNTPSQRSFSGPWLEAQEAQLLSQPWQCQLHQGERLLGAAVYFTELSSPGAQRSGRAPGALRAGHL
cynomolgus LAG3 expressed on the cell surface (293T or CHO cells) (cynomolgus monkey), sequence (P18627 other isoform, or with tags, fused parts or gaps limits assumed, form in doubt): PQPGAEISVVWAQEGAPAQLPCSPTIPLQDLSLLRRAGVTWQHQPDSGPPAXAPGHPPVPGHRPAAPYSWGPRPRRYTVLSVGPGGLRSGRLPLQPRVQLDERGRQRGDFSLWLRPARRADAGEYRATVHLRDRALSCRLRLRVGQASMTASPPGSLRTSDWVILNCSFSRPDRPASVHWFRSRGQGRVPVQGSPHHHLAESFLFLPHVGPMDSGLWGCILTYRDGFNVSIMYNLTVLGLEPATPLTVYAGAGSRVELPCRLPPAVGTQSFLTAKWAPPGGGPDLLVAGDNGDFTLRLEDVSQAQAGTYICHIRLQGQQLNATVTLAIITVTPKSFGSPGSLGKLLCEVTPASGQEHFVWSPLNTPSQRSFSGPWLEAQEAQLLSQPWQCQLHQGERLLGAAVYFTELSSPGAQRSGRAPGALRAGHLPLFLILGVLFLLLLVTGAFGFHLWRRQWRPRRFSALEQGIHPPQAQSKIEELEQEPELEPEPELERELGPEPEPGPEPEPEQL

B1: 421.61.4.5G11 (antibody, V domains shown)
VH: EVQLQQSGAELVRSGASVKLSCTASGFNIKDYYMHWVKQRPEQGLEWIAWIDPENGDTEYAPKFQGRATLTADTSSNTAYLHLSSLTSEDTAVYYCNAPDALDYWGQGTSVTVSS
VL: not shown
Regarding B1, in experiment [1], the Kd was 4.5 nM. In experiment [2], the Kd is 4.51 nM and the koff is 0.000641 s⁻¹.

The values are drawn from patent US20200079850A1.
